Data taken from patent US20150231240A1, “ANTI-C16ORF54 ANTIBODIES AND METHODS OF USE THEREOF” (priority 2012, published 2015).
Substitutions are numbered along the chain they refer to.

T1: cynomolgus monkey C16orf54 (cynomolgus monkey (Macaca fascicularis), UniProt Q6UWD8 1-224 (human entry))
T1 construct: also called cyno C16orf54; cyno-C16orf54
T1 chain: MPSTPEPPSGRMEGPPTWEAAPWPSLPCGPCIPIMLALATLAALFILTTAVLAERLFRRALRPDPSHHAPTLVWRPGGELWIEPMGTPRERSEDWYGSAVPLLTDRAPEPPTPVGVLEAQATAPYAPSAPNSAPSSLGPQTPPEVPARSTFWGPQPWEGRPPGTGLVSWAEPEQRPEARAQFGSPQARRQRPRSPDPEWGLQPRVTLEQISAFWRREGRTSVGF

T2: human C16orf54 (human, UniProt Q6UWD8 1-224)
T2 construct: also called huC16orf54; hC16orf54
T2 sequence: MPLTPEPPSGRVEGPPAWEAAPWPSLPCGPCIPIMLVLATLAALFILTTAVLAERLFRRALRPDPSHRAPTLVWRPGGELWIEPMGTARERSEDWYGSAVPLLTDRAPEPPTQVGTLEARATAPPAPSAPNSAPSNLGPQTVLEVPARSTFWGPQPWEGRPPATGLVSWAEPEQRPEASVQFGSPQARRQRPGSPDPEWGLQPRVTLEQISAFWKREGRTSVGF

T3: N-terminal 32 amino acids of huC16orf54 (Homo sapiens, UniProt Q6UWD8)
T3 sequence (Q6UWD8 1-32 limits assumed): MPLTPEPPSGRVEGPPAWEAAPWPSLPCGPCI

B1: R29-7-1C (antibody, V domains shown)
VH: DVQLQESGPGLVKPSQSLSLTCTVTGYSITSDYAWNWIRQFPGNKLEWMGYISYSGSIRYNPSLKSRISITRDTSKNQFFLQLNSVTTEDTATYYCAREKYDNYYYAMDYWGQGTSVTVSS
VL: DIVMSQSPSSLAVSVGEKVTLSCKSSQNLLYSTNQKNYLAWYQQKPGQSPKLLIYWASTRESGVPDRFTGSGSGTDFTLTISSVKAEDLAVYYCQQYYSYRTFGGGTKLEIK
notes: Murine monoclonal IgG2a from a hybridoma
B2: R29-7-1C: murine anti-C16orf54 monoclonal antibody, IgG2a; VH SEQ ID NO: 8, VL SEQ ID NO: 10 (antibody, V domains shown)
VH: MRVLILLWLFTAFPGILSDVQLQESGPGLVKPSQSLSLTCTVTGYSITSDYAWNWIRQFPGNKLEWMGYISYSGSIRYNPSLKSRISITRDTSKNQFFLQLNSVTTEDTATYYCAREKYDNYYYAMDYWGQGTSVTVSS
VL: MDSQAQVLMLLLLWVSGTCGDIVMSQSPSSLAVSVGEKVTLSCKSSQNLLYSTNQKNYLAWYQQKPGQSPKLLIYWASTRESGVPDRFTGSGSGTDFTLTISSVKAEDLAVYYCQQYYSYRTFGGGTKLEIK
modifications: R29-7-1C heavy chain variable region; R29-7-1C light chain variable region
B3: R29-67-7A: murine anti-C16orf54 monoclonal antibody, IgG2a; VH SEQ ID NO: 12, VL SEQ ID NO: 14 (antibody, V domains shown)
VH: B2 VH with S71N, S75R, I76T, K83N, I88L, K94T, K118N, N121Y, Y122E, Y123F
VL: B2 VL with D2E, L41M, T53S, S119I
modifications: R29-67-7A heavy chain variable region; R29-67-7A light chain variable region

Tests used:
[1] = target: T1, cynomolgus monkey C16orf54; test: flow cytometry titration, F279-cyno-C16orf54 cells
Protocol: Anti-C16orf54 antibodies which bound to human C16orf54 were tested for their binding to cells expressing human C16orf54 and cells expressing cyno C16orf54. […] Median fluorescence intensities for each primary antibody concentration were used to derive a flow EC50/Kd using the one site-specific binding with Hill slope model in Prism (GraphPad Prism® Software). Results are shown as flow EC50 in Table 35.

human C16orf54 [2] = target: T2, human C16orf54; test: flow cytometry, 10 ug/ml antibody, D42M1-huC16orf54 cells
Method in brief: (§1)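 Sarcoma cells transfected with human or cyno C16orf54 were Fc-blocked, stained with antibody for 1 h at 4° C., then PE anti-mouse IgG Fcγ secondary 30 min at 4° C., with TO-PRO-3 viability dye. Value is live-cell PE median fluorescence divided by that of IgG isotype control.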

[3] = target: T1, cynomolgus monkey C16orf54; test: flow cytometry, 10 ug/ml antibody, F279-cyno-C16orf54 cells
Method in brief: as §1

human C16orf54 [4] = target: T2, human C16orf54; test: flow cytometry titration, KG1 cells (endogenous human C16orf54)
human C16orf54 [5] = target: T2, human C16orf54; test: flow cytometry, REH leukemia cells (endogenous C16orf54), 3 repeats
human C16orf54 [6] = target: T2, human C16orf54; test: flow cytometry, KG-1 leukemia cells (endogenous C16orf54), 6 repeats
human C16orf54 [7] = target: T2, human C16orf54; test: flow cytometry, OCI-AML3 leukemia cells (endogenous C16orf54), 3 repeats
[8] = target: T3, N-terminal 32 amino acids of huC16orf54; test: Off-rate screen of hybridoma supernatants on OctetQK384 (biolayer interferometry); type: binding; details: calculated off-rate
Protocol: Eight anti-huC16orf54 monoclonal antibodies were further screened for binding and subsequent off-rate analysis using the OctetQK384® sytem (ForteBio). Hybridoma supernatants were screened for association to and dissocation from streptavidin sensors coated with the N-terminal 32 amino acids of huC16orf54 coupled to biotin, and the calculated offrates (kdis) are shown in Table 31. Cloned hybridomas with […] off-rates were carried forward for antibody purification.

[9] = test system: KG-1 (acute myeloid leukemia) xenograft; type: in vivo, NOD-SCID mice; details: for tumor growth inhibition (in words) / tumor growth inhibition: KG-1 xenograft; for tumor growth inhibition (in words): compared to control IgG, antibodies weekly; for tumor growth inhibition: treatment initiated at 92 mm^3, HB121 IgG isotype negative control; for TGI (tumor growth inhibition) / Mean (tumor volume): Table 42, KG-1 AML model, NOD-SCID mice, weekly administration; for Mean (tumor volume): in mm³ (unit assumed)
Protocol: Subcutaneous tumors are generated by injection of 1×10^7 cancer cells in a mixture of PBS (without magnesium or calcium) and BD Matrigel™ (BD Biosciences) at a 1:1 ratio in the right flank of female SCID or nu^−/− mice. The injected total volume per mouse is […] with 50% being Matrigel (BD Biosciences). Mice are randomized once tumors reach a size between 65-200 mm^3. Antibodies are administered weekly, and body weights and tumors are measured once and twice weekly, respectively. Tumor volume is calculated as described (van der Horst et al. (2009) Neoplasia 11: 355-364). As a negative control, mice are injected with either purified mouse IgG or PBS; or a purified monoclonal antibody that recognizes an antigen other than C16orf54.
Anti-C16orf54 antibodies were tested for their anti-tumor activity in an animal-tumor model. For these studies, the cell line KG-1 (acute myeloid leukemia) was obtained from ATCC and cultured according to the suppliers' protocols. Animals were obtained from Taconic (Hudson, N.Y.). Studies were conducted with anti-C16orf54 antibodies and antibody-drug conjugates (ADCs) of these antibodies.
In these experiments, 4-6 week-old immunodeficient NOD-SCID female mice were used for the KG-1 tumor model. Mice were subcutaneously injected on the right flank with 6×10^6 viable cells (KG-1) in a mixture of PBS (without magnesium or calcium) and BD Matrigel™ (BD Biosciences). Once the tumor reached a size between 65-200 mm^3 mice were randomized. Anti-C16orf54 antibodies were administered weekly, and bodyweights and tumors were measured once and twice weekly, respectively. Tumor volume was calculated as described (van der Horst et al., supra). Experiments were performed on groups of at least eight animals per experimental point.
Statistical significance between treatment and control groups was calculated using the Graphpad Prism® software package and applying Student's two-tailed t-test. A p-value of less than 0.05 was considered significant.

C16orf54 ECD peptides = test: Peptide crossblocking (Table 36); type: binding

Row | Molecule | EC50 [1] | Median fold change relative to IgG control (human C16orf54 [2]) | Median fold change relative to IgG control [3] | EC50 (human C16orf54 [4]) | Average MFI fold change relative to isotype control (human C16orf54 [5]) | Average MFI fold change relative to isotype control (human C16orf54 [6]) | Average MFI fold change relative to isotype control (human C16orf54 [7]) | kdis [8] | tumor growth inhibition (in words) [9] | tumor growth inhibition [9] | TGI (tumor growth inhibition) [9] | Mean (tumor volume) [9] | Peptide crossblocking (C16orf54 ECD peptides)
1 | B1 | 2.7 nM | 205 fold | 53.7 fold | 0.3 nM | 6.4 fold | 16.9 fold | 3 fold |  |  |  |  |  | 
2 | B2 |  |  |  |  |  |  |  | 0.0102 s⁻¹ | inhibitors of tumor growth | 69% | −8% | 2813.4 | none
3 | B3 |  |  |  |  |  |  |  | 0.00845 s⁻¹ | inhibitors of tumor growth | 70% | 6% | 3221.4 | aa1-31, aa1-15
